In patent US20150268247A1, “Assay for Screening of Anti-Viral Compounds That Inhibit Specific Interaction Interfaces Between Cullin5 and an ElonginB/ElonginC/ CBF-beta/HIV-1 Vif Complex” (UNIVERSITY OF ROCHESTER, priority 2012, published 2015):

Target: T1, Cul5(N) (Homo sapiens, UniProt Q93034, L345D/V341R)
T1 construct: GST with 3C protease site (N, cleaved yes); made in house; host or cells: E. coli BL21(DE3), as for VifC/EloB/C
T1 sequence (Q93034 with tags, fused parts or gaps V341R/L345D): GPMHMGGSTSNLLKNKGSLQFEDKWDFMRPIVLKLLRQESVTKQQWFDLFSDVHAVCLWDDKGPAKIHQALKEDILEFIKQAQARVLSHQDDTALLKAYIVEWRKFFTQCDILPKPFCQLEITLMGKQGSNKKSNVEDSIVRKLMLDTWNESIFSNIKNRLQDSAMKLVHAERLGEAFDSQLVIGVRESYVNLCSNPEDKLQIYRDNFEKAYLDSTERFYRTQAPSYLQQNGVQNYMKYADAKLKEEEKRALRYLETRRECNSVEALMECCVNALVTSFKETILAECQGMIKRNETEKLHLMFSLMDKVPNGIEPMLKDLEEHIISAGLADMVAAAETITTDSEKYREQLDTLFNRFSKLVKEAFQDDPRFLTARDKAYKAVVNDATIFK
Experiment: ITC titration of Cul5(N) to CBFβ alone
Assay type: binding
Conditions: FIG. 4D
Description: ITC experiments were conducted with a VP-ITC isothermal titration calorimeter (GE Healthcare) at temperatures ranging from 293.15 to 308.15 K using a reference power of 15 μcal s^−1 and a 307 rpm stirring rate. Purified protein was dialyzed for 8 h at 4° C. against 1300 volumes of ITC buffer A [0.125 M NaCl, 0.02 M HEPES (pH 7.4), 0.0002 M TCEP] or ITC buffer B [0.125 M NaCl, 0.02 M phosphate (pH 7.4), 0.0002 M TCEP]. Twenty-nine 10 μl aliquots of protein in the syringe were injected into the sample cell at time intervals ranging from 240 to 360 s. The concentration of protein in the syringe ranged from 120 to 210 μM, while the concentration of protein in the sample cell ranged from 12 to 27 μM. Errors in the thermodynamic parameters were obtained from the standard deviation resulting from average values with at least two replicates. […] As such, for all protein-into-protein experiments, the heats of injection were accounted for by subtracting the average heat of the last three injections from each data point of an experiment. All data were fit with the “One Set of Sites” curve-fitting model to determine the parameters Ka, n, and AH using the Origin software v7.0 (GE Healthcare). ΔG was calculated from ΔG=−RT ln Ka, where R=1.9872 cal K^−1 mol^−1, and T=absolute temperature (Kelvin). ΔS was calculated from the equation, ΔG=ΔH−TΔS.

B1: CBFβ: Recombinant human core-binding factor β subunit isoform 2 (protein, listed as Homo sapiens)
chain: MGHHHHHHLEVLFQGPPRVVPDQRSKFENEEFFRKLSRECEIKYTGFRDRPHEERQARFQNACRDGRSEIAFVATGTNLSLQFFPASWQGEQRQTPSREYVDLEREAGKVYLKAPMILNGVCVIWKGWIDLQRLDGMGCLEFDEERAQQEDALAQQAFEEARRRTREFEDRDRSHREEMEVRVSQLLAVTGKKTTRP
In the case of B1, the “interaction of CBFβ with Cul5(N) alone” value is reported as “did not interact”.
